The values that follow come from patent publication US20230287125A1 (LEPU BIOPHARMA, published 2023).

Test [1] addresses mouse PD-L1 protein (mouse, UniProt Q9EP73 19-239). The experiment in a line: ELISA, coated mouse PD-L1.
For test [2], the target named is T1, human PD-L1 over-expressed on CHOK1 cells (human, UniProt Q9NZQ7 19-290).
T1 construct: whole, on cells; also called PDL1-CHOK1 cells
Put plainly: flow cytometry on PDL1-CHOK1 cells. The protocol:
After washing by PBS, Alexa Fluor® 647 AffiniPure Goat Anti-Human IgG (H+L) was added to each well and incubated at 4° C. for 30 mins. Samples were washed twice with FACS buffer. The mean florescence intensity (MFI) of Alexa Fluor® 647 was evaluated by FACSCanto.
(In general: A flow cytometer gives signals particle by particle.)

Test [3] addresses T2, human PD-L1-Fc protein (human, UniProt Q9NZQ7 19-238).
T2 construct: coating antigen of the ELISAs; also called rhPD-L1-Fc; not shown: Fc
Put plainly: ELISA, coated human PD-L1 (PD-L1-Fc per paragraph 110). The protocol:
Briefly, microtiter plates were coated with human PD-L1-Fc protein at 0.5 μg/ml in PBS, 100 μl/well at 4° C. overnight, then blocked with 150 μl/well of 1% BSA. […] The plates were washed with PBS/Tween and then incubated with Mouse-anti-human IgG Fab antibody conjugated with Horse Radish Peroxidase (HRP) for 30 mins at 37° C. After washing, the plates were developed with TMB substrate and analyzed by spectrophotometer at OD 450 nm.
Briefly, microtiter plates were coated with human, mouse, rat and cynomolgus PD-L1 proteins at 0.5 μg/ml in PBS, 100 μl/well at 4° C. overnight, then blocked with 150 μl/well of 1% BSA. Three-fold dilutions of chimeric antibodies starting from 10 μg/ml were added to each well and incubated for 1 hour at 37° C. The plates were washed with PBS/Tween and then incubate with mouse-anti-human IgG Fab antibody conjugated with Horse Radish Peroxidase (HRP) for 30 mins at 37° C. After washing, the plates were developed with TMB substrate and analyzed by spectrophotometer at OD 450 nm.

Test [4] concerns the target T2, human PD-L1-Fc protein. Put plainly: competition ELISA, coated human PD-L1-Fc, biotin-labeled human PD-1-Fc as competitor. The procedure:
Briefly, microtiter plates were coated with human PD-L1-Fc protein at 0.5 μg/ml in PBS, 100 μl/well at 4° C. overnight, then blocked with 150 μl/well of 1% BSA. […] The plates were washed with PBS/Tween and then incubated with Streptavidin-HRP for 10 mins at 37° C. After washing, the plates were developed with TMB substrate and analyzed by spectrophotometer at OD 450 nm.
In general terms: An ELISA detects its analyte on a solid surface through an enzyme-linked reagent.

The target in test [5] is T2, human PD-L1-Fc protein. Put plainly: receptor blocking ELISA: coated human PD-L1-Fc, blocked ligand biotin-labeled human PD-1-Fc (Bio-PD1), OD 450nm; middle left panel (with Hu67F3G7-5). The protocol:
(§1) Briefly, microtiter plates were coated with human PD-L1-Fc protein at 0.5 μg/ml in PBS, 100 μl/well at 4° C. overnight, then blocked with 150 μl/well of 1% BSA at 37° C. for 2 hours. […] The plates were washed with PBS/Tween and then incubated with Streptavidin-HRP for 10 mins at 37° C. After washing, the plates were developed with TMB substrate and analyzed by spectrophotometer at OD 450 nm.

Test [6] deals with T2, human PD-L1-Fc protein. Put plainly: receptor blocking ELISA: coated human PD-L1-Fc, blocked ligand biotin-labeled human PD-1-Fc (Bio-PD1), OD 450nm; upper right panel (with Hu67F3G7-3). The procedure:
as §1

In test [7] the target is T2, human PD-L1-Fc protein. Put plainly: receptor blocking ELISA: coated human PD-L1-Fc, blocked ligand biotin-labeled human CD80-Fc (Bio-CD80), OD 450nm; upper left panel (with Hu67F3G7-2). The protocol:
as §1

T2 sequence (Q9NZQ7 19-238 limits assumed): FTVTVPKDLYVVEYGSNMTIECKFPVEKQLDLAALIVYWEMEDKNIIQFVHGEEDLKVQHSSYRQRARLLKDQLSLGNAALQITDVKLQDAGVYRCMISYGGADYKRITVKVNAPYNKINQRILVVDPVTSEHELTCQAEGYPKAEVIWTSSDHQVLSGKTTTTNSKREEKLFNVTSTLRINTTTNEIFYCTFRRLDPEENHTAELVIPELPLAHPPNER
mouse PD-L1 protein, sequence (Q9EP73 19-239 limits assumed): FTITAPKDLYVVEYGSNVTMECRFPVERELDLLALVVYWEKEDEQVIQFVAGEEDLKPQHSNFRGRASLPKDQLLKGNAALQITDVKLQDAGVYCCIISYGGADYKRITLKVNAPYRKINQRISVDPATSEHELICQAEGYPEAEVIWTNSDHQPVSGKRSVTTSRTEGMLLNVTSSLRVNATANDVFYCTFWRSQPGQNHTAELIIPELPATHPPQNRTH
T1 sequence (Q9NZQ7 19-290): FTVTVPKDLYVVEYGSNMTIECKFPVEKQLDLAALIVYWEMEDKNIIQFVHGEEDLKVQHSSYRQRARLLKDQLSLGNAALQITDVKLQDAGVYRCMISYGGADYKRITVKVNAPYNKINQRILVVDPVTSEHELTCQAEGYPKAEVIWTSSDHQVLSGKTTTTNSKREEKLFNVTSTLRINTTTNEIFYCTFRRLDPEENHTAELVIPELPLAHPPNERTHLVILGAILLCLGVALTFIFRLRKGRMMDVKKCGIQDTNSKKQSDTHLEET

B1: 67F3G7 chimeric mAb (antibody, V domains shown)
VH: QVKLLQSGAALVKPGASVKMSCKASGYIFTDFWVSWVKQSHEKSLEWIGEIYPNSGVSRYNEKFKGRATMTVDKSTSTAYLELSRLTSEDSAIYYCTKYFGYTYWFGYWGQGTLVTVSS
VL: DTVLTQSPALAVSLGQRITISCRASKSVSTYMHWYQQRSGLQPKLLIYSASHLESGVPSRFSGSGSGTDFTLTIDPVEADDIANYYCQQSNELPVTFGSGTKLEIK
notes: chimeric mAb of the hybridoma clone; also called 67F3G7-chimera
As usually defined, the EC50 is the concentration that produces a half-maximal response. Read a low EC50 as an effect from little substance. Broadly, the IC50 is the concentration at which inhibition is half-maximal. A higher IC50 goes with weaker potency in that assay. On to B1, for which the binding result in test [1] is “no binding (tested: dilutions starting from 10 µg/ml)”. In addition, the figures for the half-maximal effective concentration (EC50) in test [2] and in test [3] were 0.103 nM and 0.0108 µg/mL, respectively. The concentration for half-maximal inhibition (IC50) was found to be 0.14 µg/mL in test [4], 0.149 µg/mL in test [5], 0.136 µg/mL in test [6] and 0.256 µg/mL in test [7].
